B1: ANKRD44 (parent)
chain: FHCIETLVTTGANVNETDDWGRTA
B2: RAB11B (parent)
chain: AVPTDEARAFAEKNNLSFIETSAL
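Further: lentivirally expressed fusions sorted by FACS into six bins by GFP to DsRed ratio, PSI derived from sequencing read proportions per bin multiplied by bin number.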

Variants of: B1
Assay: protein stability index of a GFP-peptide fusion (GPS, HEK-293T) (PSI 1-6); higher = more stable
Conditions: c terminus: a fixed tail appended
For FHCIETLVTTGANVNETMDWGRTA [D18M], the protein stability index was 1.64.
In the case of FHCIETLVTTGANVNETDDNGRTA [W20N], the protein stability index is reported as 3.23.
Variant FHCIETLVTTGANVNETDDFGRTA [W20F] has a protein stability index of 2.66.
Variant FHCIETLVTTGANVNETDDCGRTA [W20C] has a protein stability index of 2.43.
With FHCIETLVTTGANVNETDDEGRTA [W20E] the protein stability index was 3.19.
FHCIETLVTTGANVNETDDPGRTA [W20P] showed a protein stability index of 2.61.
FHCIETLVTTGANVNETDDIGRTA [W20I] gave a protein stability index of 2.4.
Variant FHCIETLVTTGANVNETDDGGRTA [W20G] has a protein stability index of 2.52.
FHCIETLVTTGANVNETDDYGRTA [W20Y] showed a protein stability index of 2.51.
In the case of FHCIETLVTTGANVNETDDHGRTA [W20H], the protein stability index is reported as 2.94.
In the case of FHCIETLVTTGANVNETDDAGRTA [W20A], the protein stability index is reported as 2.99.
Variant FHCIETLVTTGANVNETDDKGRTA [W20K] has a protein stability index of 3.03.
Work on FHCIETLVTTGANVNETDDTGRTA [W20T] yielded a protein stability index of 3.27.
In the case of FHCIETLVTTGANVNETDDSGRTA [W20S], the protein stability index is reported as 3.
FHCIETLVTTGANVNETDDLGRTA [W20L] showed a protein stability index of 3.26.
Variant FHCIETLVTTGANVNETDDMGRTA [W20M] has a protein stability index of 2.47.
FHCIETLVTTGANVNETDDRGRTA [W20R] showed a protein stability index of 2.57.
For FHCIETLVTTGANVNETDDVGRTA [W20V], the protein stability index was 2.77.
FHCIETLVTTGANVNETDDDGRTA [W20D] showed a protein stability index of 3.2.
For FHCIETLVTTGANVNETDDQGRTA [W20Q], the protein stability index was 2.66.
FHCIETLVTTGANVFETDDWGRTA [N15F] showed a protein stability index of 1.96.
FHCIETLVTTGANVHETDDWGRTA [N15H] showed a protein stability index of 2.17.
Variant FHCIETLVTTGANVVETDDWGRTA [N15V] has a protein stability index of 2.
Work on FHCIETLVTTGANVRETDDWGRTA [N15R] yielded a protein stability index of 2.01.
For FHCIETLVTTGANVPETDDWGRTA [N15P], the protein stability index was 2.34.
With FHCIETLVTTGANVKETDDWGRTA [N15K] the protein stability index was 2.44.
Work on FHCIETLVTTGANVLETDDWGRTA [N15L] yielded a protein stability index of 2.21.
Work on FHCIETLVTTGANVTETDDWGRTA [N15T] yielded a protein stability index of 3.27.
For FHCIETLVTTGANVYETDDWGRTA [N15Y], the protein stability index was 1.96.
FHCIETLVTTGANVSETDDWGRTA [N15S] showed a protein stability index of 1.64.
For FHCIETLVTTGANVMETDDWGRTA [N15M], the protein stability index was 1.69.
FHCIETLVTTGANVQETDDWGRTA [N15Q] gave a protein stability index of 2.18.
Work on FHCIETLVTTGANVGETDDWGRTA [N15G] yielded a protein stability index of 1.85.
Work on FHCIETLVTTGANVIETDDWGRTA [N15I] yielded a protein stability index of 1.54.
Variant FHCIETLVTTGANVWETDDWGRTA [N15W] has a protein stability index of 2.14.
FHCIETLVTTGANVEETDDWGRTA [N15E] showed a protein stability index of 2.13.
Work on FHCIETLVTTGANVNITDDWGRTA [E16I] yielded a protein stability index of 1.52.
FHCIETLVTTGANVNPTDDWGRTA [E16P] gave a protein stability index of 2.
In the case of FHCIETLVTTGANVNKTDDWGRTA [E16K], the protein stability index is reported as 2.5.
For FHCIETLVTTGANVNGTDDWGRTA [E16G], the protein stability index was 1.79.
For FHCIETLVTTGANVNFTDDWGRTA [E16F], the protein stability index was 1.86.
For FHCIETLVTTGANVNMTDDWGRTA [E16M], the protein stability index was 1.56.
For FHCIETLVTTGANVNATDDWGRTA [E16A], the protein stability index was 1.98.
FHCIETLVTTGANVNNTDDWGRTA [E16N] gave a protein stability index of 1.97.
With FHCIETLVTTGANVNQTDDWGRTA [E16Q] the protein stability index was 1.45.
For FHCIETLVTTGANVNSTDDWGRTA [E16S], the protein stability index was 1.78.
FHCIETLVTTGANVNWTDDWGRTA [E16W] gave a protein stability index of 2.43.
In the case of FHCIETLVTTGANVNLTDDWGRTA [E16L], the protein stability index is reported as 1.8.
Variant FHCIETLVTTGANVNCTDDWGRTA [E16C] has a protein stability index of 2.16.
FHCIETLVTTGANVNDTDDWGRTA [E16D] gave a protein stability index of 2.17.
FHCIETLVTTGANVNTTDDWGRTA [E16T] showed a protein stability index of 1.53.
Work on FHCIETLVTTGANVNVTDDWGRTA [E16V] yielded a protein stability index of 1.64.
In the case of FHCIETLVTTGANVNYTDDWGRTA [E16Y], the protein stability index is reported as 2.32.
FHCIETLVTTGANVNHTDDWGRTA [E16H] gave a protein stability index of 2.32.
In the case of FHCIETLVTTGANVNRTDDWGRTA [E16R], the protein stability index is reported as 1.76.
FHCIETLVTTGANVNETDDWGRVA [T23V] showed a protein stability index of 2.14.
FHCIETLVTTGANVNETDDWGRHA [T23H] gave a protein stability index of 2.42.
FHCIETLVTTGANVNETDDWGRSA [T23S] showed a protein stability index of 2.31.
FHCIETLVTTGANVNETDDWGRAA [T23A] showed a protein stability index of 2.27.
Variant FHCIETLVTTGANVNETDDWGRNA [T23N] has a protein stability index of 2.17.
FHCIETLVTTGANVNETDDWGRPA [T23P] gave a protein stability index of 2.13.
For FHCIETLVTTGANVNETDDWGRCA [T23C], the protein stability index was 1.87.
FHCIETLVTTGANVNETDDWGRYA [T23Y] showed a protein stability index of 1.83.
For FHCIETLVTTGANVNETDDWGRFA [T23F], the protein stability index was 2.06.
For FHCIETLVTTGANVNETDDWGRDA [T23D], the protein stability index was 2.71.
For FHCIETLVTTGANVNETDDWGRQA [T23Q], the protein stability index was 2.24.
In the case of FHCIETLVTTGANVNETDDWGRLA [T23L], the protein stability index is reported as 1.91.
Variant FHCIETLVTTGANVNETDDWGRWA [T23W] has a protein stability index of 1.56.
Work on FHCIETLVTTGANVNETDDWGRKA [T23K] yielded a protein stability index of 2.26.
Variant FHCIETLVTTGANVNETDDWGREA [T23E] has a protein stability index of 2.71.
With FHCIETLVTTGANVNETDDWGRGA [T23G] the protein stability index was 2.42.
FHCIETLVTTGANVNETDDWGRIA [T23I] gave a protein stability index of 1.86.
In the case of FHCIETLVTTGANVNETDDWGRRA [T23R], the protein stability index is reported as 2.05.
Variant FHCIETLVTTGANVNETDDWGRMA [T23M] has a protein stability index of 1.38.
In the case of FHCIETLVTTGANVNETDRWGRTA [D19R], the protein stability index is reported as 1.66.
Variant FHCIETLVTTGANVNETDSWGRTA [D19S] has a protein stability index of 1.72.
Variant FHCIETLVTTGANVNETDVWGRTA [D19V] has a protein stability index of 2.18.
For FHCIETLVTTGANVNETDHWGRTA [D19H], the protein stability index was 1.73.
FHCIETLVTTGANVNETDTWGRTA [D19T] gave a protein stability index of 1.88.
FHCIETLVTTGANVNETDMWGRTA [D19M] showed a protein stability index of 2.
Variant FHCIETLVTTGANVNETDWWGRTA [D19W] has a protein stability index of 2.44.
Work on FHCIETLVTTGANVNETDLWGRTA [D19L] yielded a protein stability index of 2.09.
FHCIETLVTTGANVNETDIWGRTA [D19I] gave a protein stability index of 3.48.
FHCIETLVTTGANVNETDYWGRTA [D19Y] gave a protein stability index of 2.43.
Work on FHCIETLVTTGANVNETDQWGRTA [D19Q] yielded a protein stability index of 2.06.
FHCIETLVTTGANVNETDGWGRTA [D19G] gave a protein stability index of 1.79.
For FHCIETLVTTGANVNETDNWGRTA [D19N], the protein stability index was 1.75.
Work on FHCIETLVTTGANVNETDAWGRTA [D19A] yielded a protein stability index of 1.56.
Work on FHCIETLVTTGANVNETDFWGRTA [D19F] yielded a protein stability index of 2.58.
With FHCIETLVTTGANVNETDKWGRTA [D19K] the protein stability index was 2.05.
Variant FHCIETLVTTGANVNETDCWGRTA [D19C] has a protein stability index of 2.15.
FHCIETLVTTGANVNETDPWGRTA [D19P] showed a protein stability index of 2.26.
For FHCIETLVTTGANVNETDEWGRTA [D19E], the protein stability index was 2.49.

Variants of: B2
Assay: as above
Conditions: c terminus: a fixed tail appended
CVPTDEARAFAEKNNLSFIETSAL [A1C] showed a protein stability index of 2.43.
